Laboratory results reported in PMC2990405.

Target: Canonical-type transient receptor potential cation channel type 3 (TRPC3) (rabbit (endogenous in skeletal muscle))
Assay: co-IP

In the case of “GST-JP2 fragment F1-3 (a.a. 143-215) (from UniProt Q9ET78 143-215) (domain or fragment)”, the ratio of GST-band/TRPC3-band intensities normalised to F1-1 (set as 1) is reported as 0.25.
